Patent US20160136234A1

What was measured:
Test in all cases: cell-based or functional assay
VRK2 (h) (human) = VRK2 (h) (human) (UniProt Q86Y07)
ULK3 (h) (human) = biological target: T1, ULK3 (h) (human) (UniProt Q6PHR2)
T1 sequence (looked up): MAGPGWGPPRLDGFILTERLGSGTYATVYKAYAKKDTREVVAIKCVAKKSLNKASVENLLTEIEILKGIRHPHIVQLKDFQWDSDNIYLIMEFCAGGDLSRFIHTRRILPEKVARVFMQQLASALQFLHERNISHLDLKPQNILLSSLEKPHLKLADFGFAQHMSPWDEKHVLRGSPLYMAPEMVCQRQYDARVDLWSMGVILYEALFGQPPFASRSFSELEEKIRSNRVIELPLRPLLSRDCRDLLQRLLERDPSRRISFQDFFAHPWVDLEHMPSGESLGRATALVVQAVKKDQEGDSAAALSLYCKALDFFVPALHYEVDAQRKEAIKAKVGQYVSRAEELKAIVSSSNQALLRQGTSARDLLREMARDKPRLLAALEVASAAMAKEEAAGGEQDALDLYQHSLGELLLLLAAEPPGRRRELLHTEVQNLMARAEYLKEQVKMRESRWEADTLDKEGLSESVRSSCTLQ

ZIPK (h) (human) = ZIPK (h) (human) (UniProt O43293)
RIPK2 (h) (human) = RIPK2 (h) (human) (UniProt O43353)
EGFR(L861Q) (h) (human) = EGFR(L861Q) (h) (human) (UniProt P00533)
EphA3 (h) (human) = biological target: T2, EphA3 (h) (human) (UniProt P29320)
T2 sequence (looked up): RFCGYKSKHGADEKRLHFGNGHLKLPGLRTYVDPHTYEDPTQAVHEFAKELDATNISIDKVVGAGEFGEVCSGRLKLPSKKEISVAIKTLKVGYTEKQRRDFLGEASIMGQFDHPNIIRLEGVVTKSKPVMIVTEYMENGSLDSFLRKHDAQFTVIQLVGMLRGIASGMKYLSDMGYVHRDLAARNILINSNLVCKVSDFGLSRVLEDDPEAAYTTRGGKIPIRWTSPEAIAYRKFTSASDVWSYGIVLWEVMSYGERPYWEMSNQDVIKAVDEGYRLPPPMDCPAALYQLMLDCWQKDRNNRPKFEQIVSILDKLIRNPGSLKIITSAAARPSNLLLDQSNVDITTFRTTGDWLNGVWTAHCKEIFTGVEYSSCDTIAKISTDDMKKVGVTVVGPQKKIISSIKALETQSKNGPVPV

[1] = biological target: IGF-1R (h), activated (human) (UniProt P08069)
MLCK (h) (human) = biological target: MLCK (h) (human)
STK33 (h) (human) = STK33 (h) (human) (UniProt Q9BYT3)
cKit(D816V) (h) (human) = cKit(D816V) (h) (human) (UniProt P10721)
EGFR (h) (human) = EGFR (h) (human) (UniProt P00533)
ErbB4 (h) (human) = ErbB4 (h) (human) (UniProt Q15303)
Aurora-B (h) (human) = Aurora-B (h) (human) (UniProt Q96GD4)
NEK11 (h) (human) = biological target: T3, NEK11 (h) (human) (UniProt Q8NG66)
T3 sequence (looked up): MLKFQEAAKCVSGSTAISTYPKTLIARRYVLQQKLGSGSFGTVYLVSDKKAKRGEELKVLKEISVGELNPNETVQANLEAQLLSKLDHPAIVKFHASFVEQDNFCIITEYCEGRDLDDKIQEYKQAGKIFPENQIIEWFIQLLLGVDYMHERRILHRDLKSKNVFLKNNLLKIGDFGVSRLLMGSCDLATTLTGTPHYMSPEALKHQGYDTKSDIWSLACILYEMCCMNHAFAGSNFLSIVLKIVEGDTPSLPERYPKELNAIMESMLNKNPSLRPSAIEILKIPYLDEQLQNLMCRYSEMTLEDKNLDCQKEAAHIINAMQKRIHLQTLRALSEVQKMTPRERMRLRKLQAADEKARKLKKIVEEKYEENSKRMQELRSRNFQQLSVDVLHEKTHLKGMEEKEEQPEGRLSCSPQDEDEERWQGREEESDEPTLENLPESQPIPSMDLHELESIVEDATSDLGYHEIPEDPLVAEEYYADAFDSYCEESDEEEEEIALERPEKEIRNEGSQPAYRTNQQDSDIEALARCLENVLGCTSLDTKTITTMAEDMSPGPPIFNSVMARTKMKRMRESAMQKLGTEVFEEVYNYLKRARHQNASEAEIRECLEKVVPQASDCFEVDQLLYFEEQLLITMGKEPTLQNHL

TAO3 (h) (human) = biological target: T4, TAO3 (h) (human) (UniProt Q9H2K8)
T4 sequence (looked up): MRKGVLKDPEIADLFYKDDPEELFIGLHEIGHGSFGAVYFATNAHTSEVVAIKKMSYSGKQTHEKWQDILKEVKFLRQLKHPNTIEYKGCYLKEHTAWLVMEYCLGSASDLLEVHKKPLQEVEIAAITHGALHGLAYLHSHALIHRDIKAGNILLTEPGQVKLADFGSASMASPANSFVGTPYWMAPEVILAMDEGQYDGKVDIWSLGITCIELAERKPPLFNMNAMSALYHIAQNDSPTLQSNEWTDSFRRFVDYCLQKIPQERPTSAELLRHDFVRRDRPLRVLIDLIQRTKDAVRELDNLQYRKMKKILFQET

PDGFRβ (h) (human) = PDGFRβ (h) (human) (UniProt P09619)
PDGFRβ (h) (human), sequence (P09619 557-1106 limits assumed): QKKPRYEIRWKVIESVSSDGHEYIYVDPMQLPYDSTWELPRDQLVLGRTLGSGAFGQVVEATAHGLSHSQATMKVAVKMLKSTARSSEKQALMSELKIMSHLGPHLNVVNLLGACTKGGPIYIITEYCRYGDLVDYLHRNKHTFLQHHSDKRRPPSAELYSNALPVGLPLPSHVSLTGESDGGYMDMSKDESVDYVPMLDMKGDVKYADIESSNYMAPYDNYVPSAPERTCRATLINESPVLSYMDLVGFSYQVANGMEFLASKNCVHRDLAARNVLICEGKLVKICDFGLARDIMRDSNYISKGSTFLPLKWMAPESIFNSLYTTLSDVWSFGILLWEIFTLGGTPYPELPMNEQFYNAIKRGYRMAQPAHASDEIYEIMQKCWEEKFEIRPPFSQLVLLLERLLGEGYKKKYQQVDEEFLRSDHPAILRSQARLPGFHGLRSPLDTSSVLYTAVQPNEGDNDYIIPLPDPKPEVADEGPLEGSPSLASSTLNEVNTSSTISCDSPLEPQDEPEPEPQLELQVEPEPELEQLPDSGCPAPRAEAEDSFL

RIPK2 (h) (human), sequence (O43353 1-299 limits assumed): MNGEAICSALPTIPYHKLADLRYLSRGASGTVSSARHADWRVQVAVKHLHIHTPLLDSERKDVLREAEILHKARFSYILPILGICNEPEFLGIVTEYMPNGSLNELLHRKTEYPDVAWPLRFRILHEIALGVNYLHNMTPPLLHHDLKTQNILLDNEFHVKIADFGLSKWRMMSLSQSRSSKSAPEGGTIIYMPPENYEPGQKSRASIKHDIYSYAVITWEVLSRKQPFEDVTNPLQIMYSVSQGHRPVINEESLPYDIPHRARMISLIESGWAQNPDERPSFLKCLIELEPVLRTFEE
ErbB4 (h) (human), sequence (Q15303 706-991 limits assumed): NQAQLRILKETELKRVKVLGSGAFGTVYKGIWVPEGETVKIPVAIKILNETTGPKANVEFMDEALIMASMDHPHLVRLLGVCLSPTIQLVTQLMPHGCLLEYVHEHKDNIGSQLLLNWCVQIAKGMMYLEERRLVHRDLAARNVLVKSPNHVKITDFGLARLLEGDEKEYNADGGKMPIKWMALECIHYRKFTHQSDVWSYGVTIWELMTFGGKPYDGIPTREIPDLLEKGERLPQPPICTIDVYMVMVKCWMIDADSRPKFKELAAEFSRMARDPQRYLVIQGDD
IGF-1R (h), activated (human), sequence (P08069 959-1367 limits assumed): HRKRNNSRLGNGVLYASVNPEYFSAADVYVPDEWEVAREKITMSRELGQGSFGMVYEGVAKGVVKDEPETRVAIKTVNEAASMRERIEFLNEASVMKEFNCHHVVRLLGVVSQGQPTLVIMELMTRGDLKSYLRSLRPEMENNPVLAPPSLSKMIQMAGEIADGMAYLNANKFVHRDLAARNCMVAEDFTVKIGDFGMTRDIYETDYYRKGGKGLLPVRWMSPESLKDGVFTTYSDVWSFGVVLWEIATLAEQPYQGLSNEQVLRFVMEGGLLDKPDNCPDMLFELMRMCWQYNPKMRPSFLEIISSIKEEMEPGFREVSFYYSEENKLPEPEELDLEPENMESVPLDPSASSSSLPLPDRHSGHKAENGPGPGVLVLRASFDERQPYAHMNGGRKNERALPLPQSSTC
VRK2 (h) (human), sequence (Q86Y07 whole entry): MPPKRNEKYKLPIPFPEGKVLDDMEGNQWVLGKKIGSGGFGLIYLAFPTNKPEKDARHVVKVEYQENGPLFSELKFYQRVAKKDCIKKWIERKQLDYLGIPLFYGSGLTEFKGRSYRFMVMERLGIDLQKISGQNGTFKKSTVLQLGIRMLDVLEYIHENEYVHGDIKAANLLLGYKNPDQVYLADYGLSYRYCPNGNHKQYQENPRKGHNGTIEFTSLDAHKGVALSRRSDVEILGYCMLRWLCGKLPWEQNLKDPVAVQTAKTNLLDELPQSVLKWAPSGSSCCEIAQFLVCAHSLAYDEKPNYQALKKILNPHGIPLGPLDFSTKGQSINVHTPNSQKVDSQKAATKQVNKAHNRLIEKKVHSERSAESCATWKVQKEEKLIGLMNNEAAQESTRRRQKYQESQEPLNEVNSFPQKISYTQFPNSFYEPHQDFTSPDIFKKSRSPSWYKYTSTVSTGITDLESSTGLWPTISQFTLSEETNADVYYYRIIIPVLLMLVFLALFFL
Aurora-B (h) (human), sequence (Q96GD4 whole entry): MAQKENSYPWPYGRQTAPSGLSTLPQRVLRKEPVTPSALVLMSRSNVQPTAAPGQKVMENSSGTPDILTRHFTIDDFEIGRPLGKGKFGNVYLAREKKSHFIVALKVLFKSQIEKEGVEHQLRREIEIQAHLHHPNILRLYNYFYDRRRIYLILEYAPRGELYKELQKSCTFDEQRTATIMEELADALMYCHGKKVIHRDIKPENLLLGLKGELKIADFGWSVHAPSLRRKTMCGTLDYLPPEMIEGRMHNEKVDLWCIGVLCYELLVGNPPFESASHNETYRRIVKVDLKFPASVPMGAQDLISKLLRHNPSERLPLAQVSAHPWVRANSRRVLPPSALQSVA
cKit(D816V) (h) (human), sequence (P10721 544-976 D816V): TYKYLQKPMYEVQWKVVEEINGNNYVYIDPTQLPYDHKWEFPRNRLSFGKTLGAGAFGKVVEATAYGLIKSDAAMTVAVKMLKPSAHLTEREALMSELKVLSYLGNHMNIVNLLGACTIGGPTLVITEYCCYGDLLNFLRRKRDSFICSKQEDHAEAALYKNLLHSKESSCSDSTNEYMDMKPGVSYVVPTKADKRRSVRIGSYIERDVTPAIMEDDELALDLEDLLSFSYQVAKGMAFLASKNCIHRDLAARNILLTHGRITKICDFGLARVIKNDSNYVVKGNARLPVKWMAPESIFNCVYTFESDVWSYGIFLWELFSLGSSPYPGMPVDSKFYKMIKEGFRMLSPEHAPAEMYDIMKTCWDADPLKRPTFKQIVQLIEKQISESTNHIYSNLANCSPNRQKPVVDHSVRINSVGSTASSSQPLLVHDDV

% activity at 100 µM (VRK2 (h) (human)): 161%
% activity at 100 µM (ULK3 (h) (human)): 167%
% activity at 100 µM (ZIPK (h) (human)): 28%
% activity at 100 µM (RIPK2 (h) (human)): 97%
% activity at 100 µM (EGFR(L861Q) (h) (human)): 25%
% activity at 100 µM (EphA3 (h) (human)): 6%
% activity at 100 µM [1]: 80%
% activity at 100 µM (MLCK (h) (human)): 2%
% activity at 100 µM (STK33 (h) (human)): 45%
% activity at 100 µM (cKit(D816V) (h) (human)): 60%
% activity at 100 µM (EGFR (h) (human)): 21%
% activity at 100 µM (ErbB4 (h) (human)): 40%
% activity at 100 µM (Aurora-B (h) (human)): 128%
% activity at 100 µM (NEK11 (h) (human)): 53%
% activity at 100 µM (TAO3 (h) (human)): 77%
% activity at 100 µM (PDGFRβ (h) (human)): 81%
Substance: MMI-0300 (peptide)
